Laboratory results: publication PMC9121386

Molecular target: 80S ribosome (purified 80S ribosomal fraction from H1299 cells) (human (endogenous in H1299))

Chain of fragile histidine triad (Fhit), wild type (P49789 whole entry): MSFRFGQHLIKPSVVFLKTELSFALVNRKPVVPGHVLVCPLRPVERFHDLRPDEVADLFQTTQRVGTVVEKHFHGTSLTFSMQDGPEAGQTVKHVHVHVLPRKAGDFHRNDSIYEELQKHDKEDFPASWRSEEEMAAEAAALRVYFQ

- turnover of Ap3A by Fhit (RP-HPLC) with 80S ribosomes pre-incubated with RNaseA: < 5%
Substance: fragile histidine triad (Fhit), wild type (from UniProt P49789 1-147) (enzyme)
